These results are taken from patent US20170121395A1 (SINGH BIOTECHNOLOGY, published 2017).

Read-outs that look alike come from different tables or passages of the source.

For assay [1], the target named is T1, recombinant HIV-1 reverse transcriptase protein (HIV-1, UniProt P03367 600-858).
T1 construct: also called rHIV-1; HIV-1 RT

The target in assay [2] is T1, recombinant HIV-1 reverse transcriptase …. The source holds these as a separate data set.
Assay [3] shares this target. The source holds these as a separate data set.
Assay [4] has the same target. The source holds these as a separate data set.
For assay [5] the target is unchanged. Description: ELISA, plate coated with HIV-1 RT, sdAb at 1 µg/mL, checkerboard of coating, 2° antibody and HRP.
Assay [6] has the same target. Description: SPR (Biacore 3000), sdAb immobilized, analyte 100 nM. In general terms: In SPR one partner is held on a chip, and binding of the other changes the refractive index at the surface.
Assay [7] has the same target. Put plainly: SPR (Biacore 3000), sdAb immobilized (1200 RU), full kinetics, analyte 0-200 nM.
The target is the same in assay [8]. The source holds these as a separate data set.
Assay [9] has the same target. The source holds these as a separate data set.

B1: HIV1-9 anti-HIV-1 RT sdAb (VHH)
VHH: EVQLVESGGGSVQAGGSLRLSCAASVYSYNTNCMGWFRQAPGKEREGVAVIYAAGGLTYYADSVKGRFTISQENGKNTVYLTMNRLKPEDTAMYYCAAKRWCSSWNRGEEYNYWGQGTQVTVSS
notes: also called HIV1-9 VHH; HIV1-9 anti-RT sdAb
On to B1, for which the half-maximal effective concentration (EC50) (commonly the midpoint of the concentration-response curve) in [1] came to 0.0227 µg/mL; in assay [2], 0.0191 µg/mL; in [3] it was 0.0161 µg/mL; in assay [4] it was 0.0133 µg/mL; in [8], 0.015 µg/mL; in [9] it was 0.019 µg/mL. Further, in assay [5], the signal-to-noise ratio was greater than 20. Further, the results for the dissociation constant (Kd) in [6] and in assay [7] were 4.25 nM and 3.85 nM, respectively. Further, the dissociation rate constant (koff) (as a rule, the rate constant with which the complex falls apart) in assay [6] amounted to 0.000379 s⁻¹; in [7], 0.000731 s⁻¹. The on-rate constant (kon) (commonly the rate constant with which the complex forms) in assay [6] was determined as 89100 M⁻¹ s⁻¹; in [7], 190000 M⁻¹ s⁻¹.
